# Test results: publication PMC4132694 (Cellular signalling, 2013)
# B1: full-length wild-type (WT) SMTNL2 (Smoothelin-like 2), [35S]-labeled (natural protein, human, UniProt Q2TAL5-1 1-461, looked up)
# chain: MEPAPDAQEARTVREALGRYEAALEGAVRALHEDMRGLQRGVERRVAEAMRLAGPLARTVADLQRDNQRLQAQLERLTRQVEALGLASGMSPVPGTPGTPSPPPAPGVPDRAPRLGSARFASHATFSLSGRGQSLDHDEASESEMRKTSNSCIMENGHQPGAGPGDGPPEIAQNFSAPDPPRPRPVSLSLRLPHQPVTAITRVSDRFSGETSAAALSPMSAATLGGLNPSPSEVITPWTPSPSEKNSSFTWSVPSSGYGAVTASKHSNSPPLVTPPQSPVSPQPPAITQVHRQGERRRELVRSQTLPRTSEAQARKALFEKWEQETAAGKGKGEARARLKRSQSFGVASASSIKQILLEWCRSKTLGYQHVDLQNFSSSWSDGMAFCALVHSFFPDAFDYNSLSPTQRQKNFELAFTMAENLANCERLIEVEDMMVMGRKPDPMCVFTYVQSLYNHLRRFE
# modifications: [35S]-methionine label
# B2: GST-JNK1 (human JNK1α1) (enzyme, UniProt P45983-2 1-384, looked up)
# chain: MSRSKRDNNFYSVEIGDSTFTVLKRYQNLKPIGSGAQGIVCAAYDAILERNVAIKKLSRPFQNQTHAKRAYRELVLMKCVNHKNIIGLLNVFTPQKSLEEFQDVYIVMELMDANLCQVIQMELDHERMSYLLYQMLCGIKHLHSAGIIHRDLKPSNIVVKSDCTLKILDFGLARTAGTSFMMTPYVVTRYYRAPEVILGMGYKENVDLWSVGCIMGEMVCHKILFPGRDYIDQWNKVIEQLGTPCPEFMKKLQPTVRTYVENRPKYAGYSFEKLFPDVLFPADSEHNKLKASQARDLLSKMLVIDASKRISVDEALQHPYINVWYDPSEAEAPPPKIPDKQLDEREHTIEEWKELIYKEVMDLEERTKNGVIRGQPSPLAQVQQ
# B3: GST-JNK3 (human JNK3α1) (enzyme, UniProt P53779-2 1-422, looked up)
# chain: MSLHFLYYCSEPTLDVKIAFCQGFDKQVDVSYIAKHYNMSKSKVDNQFYSVEVGDSTFTVLKRYQNLKPIGSGAQGIVCAAYDAVLDRNVAIKKLSRPFQNQTHAKRAYRELVLMKCVNHKNIISLLNVFTPQKTLEEFQDVYLVMELMDANLCQVIQMELDHERMSYLLYQMLCGIKHLHSAGIIHRDLKPSNIVVKSDCTLKILDFGLARTAGTSFMMTPYVVTRYYRAPEVILGMGYKENVDIWSVGCIMGEMVRHKILFPGRDYIDQWNKVIEQLGTPCPEFMKKLQPTVRNYVENRPKYAGLTFPKLFPDSLFPADSEHNKLKASQARDLLSKMLVIDPAKRISVDDALQHPYINVWYDPAEVEAPPPQIYDKQLDEREHTIEEWKELIYKEVMNSEEKTKNGVVKGQPSPSAQVQQ
# How the values were obtained:
# Test in all cases: pull-down
# GST-JNK3 (human JNK3α1) = molecular target: B3
# GST-JNK1 (human JNK1α1) = molecular target: B2
# GST-JNK2 (human JNK2α2) = GST-JNK2 (human JNK2α2) (human, UniProt P45984-1 1-424)
# [1] = molecular target: B1
Binder,percent of input bound (GST-JNK3 (human JNK3α1)),percent of input bound (GST-JNK1 (human JNK1α1)),percent of input bound (GST-JNK2 (human JNK2α2)),Kd [1]
B1,50 % of input,8 % of input,65 % of input,
B2,,,,~50 µM
B3,,,,~4 µM
